Experimental data from the supplement of paper PMC7877785.
± gives the uncertainty stated by the source.

Test: self-splicing fitness, log relative to wild type (ln ratio); higher = more splicing; Tetrahymena group I intron in knt gene, E. coli kanamycin selection, DiMSum; sequences stand for … in CUCUCU…GGAGGGAAAAGUUAUCAGGCAUGCACCUGGUAGCUAGUCUUUAAACCAAUAGAUUGCAUCGGUUUAAAAGGCAAGACCGUCAAAUUGCGGGAAAGGGGUCAACAGCCGUUCAGUACCAAGUCUCAGGGGAAACUUUGAGAUGGCCUUGCAAAGGGUAUGGUAAUAAGCUGACGGACAUGGUCCUAACCACGCAGCCAAGUCCUAAGUCAACAGAUCUUCUGUUGAUAUGGAUGCAGUUCACAGACUAAAUGUCGGUCGGGGAAGAUGUAUUCUUCUCAUAAGAUAUAGUCGGACCUCUCCUUAAUGGGAGCUAGCGGAUGAAGUGAUGCAACACUGGAGCCGCUGGGAACUAAUUUGUAUGCGAAAGUAUAUUGAUUAGUUUUGGAGUACUCGUGGUCG
How it was run: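 DiMSum derived fitness as the error-weighted combination of fold changes across replicates, kanamycin versus no kanamycin, normalised to wild type. E. coli BL21(DE3) held the library, which randomised all eight P1ex-region intron nucleotides within the knt kanamycin-resistance gene on pET-22b(+). Six replicate transformations grew overnight at 37°C or 30°C on LB agar with or without 25 μg/mL kanamycin, also containing 100 μg/mL carbenicillin, 50 μM IPTG and 0.2% rhamnose, and pooled colonies were amplicon-sequenced on an Illumina HiSeq 2500.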

Row | Sequence | self-splicing fitness (ln) (30 °C) | self-splicing fitness (ln) (37 °C)
1 | AGGCAGCAAUAUUACGAGAG | -3.49 ± 0.15 | -2.79 ± 0.15
2 | AGGCAGCAAUAUUACGCGCA | -0.635 ± 0.07 | -0.0389 ± 0.098
3 | UAGCAGCAAUAUUACGCUGC | -2.86 ± 0.35 | -2.2 ± 0.32
4 | GUGUAGCAAUAUUACGACUG | -1.71 ± 0.25 | -1.47 ± 0.42
5 | AUUAAGCAAUAUUACGUAUA | -1.48 ± 0.16 | -1.35 ± 0.14
6 | GAGGAGCAAUAUUACGGAGU |  | -2.57 ± 0.34
7 | UCGCAGCAAUAUUACGCCGC |  | -1.21 ± 0.32
8 | CCGUAGCAAUAUUACGGCAU | -3.15 ± 0.23 | -2.85 ± 0.25
9 | UGCCAGCAAUAUUACGUCAA | -1.93 ± 0.11 | -1.08 ± 0.093
10 | GGUAAGCAAUAUUACGGCAA | -0.143 ± 0.12 | -0.18 ± 0.15
11 | UGAGAGCAAUAUUACGAGUG | -4.04 ± 0.29 | -2.93 ± 0.26
12 | UCAUAGCAAUAUUACGAUAG | -3.22 ± 0.19 | -1.79 ± 0.13
13 | CAUGAGCAAUAUUACGACCU | -2.47 ± 0.29 | -0.931 ± 0.26
14 | AAUCAGCAAUAUUACGUCCA | -0.876 ± 0.1 | -0.0432 ± 0.12
15 | UACGAGCAAUAUUACGCCUG | -1.65 ± 0.1 | -0.887 ± 0.14
16 | CCGAAGCAAUAUUACGCAGA | -2.91 ± 0.38 | -2.57 ± 0.33
17 | AUCUAGCAAUAUUACGUCGA | -1.39 ± 0.11 | -0.769 ± 0.12
18 | UGGCAGCAAUAUUACGAUCG | 0.335 ± 0.067 | 1.02 ± 0.1
19 | AUGAAGCAAUAUUACGAGUU | -2.19 ± 0.096 | -1.15 ± 0.1
20 | AUUCAGCAAUAUUACGCACA | -0.671 ± 0.096 | -0.192 ± 0.1

Row | Sequence | self-splicing fitness (ln) (30 °C) | self-splicing fitness (ln) (37 °C)
21 | CCCGAGCAAUAUUACGGCAG | -2.53 ± 0.29 | -2.65 ± 0.44
22 | GUACAGCAAUAUUACGUUCU | -1.98 ± 0.1 | -0.102 ± 0.1
23 | ACUCAGCAAUAUUACGACCA | -1.19 ± 0.084 | -0.64 ± 0.12
24 | GAAAAGCAAUAUUACGCCCA | -0.288 ± 0.11 | -0.385 ± 0.19
25 | AGCCAGCAAUAUUACGCAAG | -3.8 ± 0.34 | -2.98 ± 0.4
26 | CCAUAGCAAUAUUACGCGGG | -3.99 ± 0.21 | -2.87 ± 0.24
27 | UAUGAGCAAUAUUACGAUAU | -3.47 ± 0.26 | -2.02 ± 0.36
28 | GGGUAGCAAUAUUACGUAGU | -2.23 ± 0.085 | -0.762 ± 0.093
29 | GCAGAGCAAUAUUACGAAGA | -1.88 ± 0.36 | 
30 | ACGGAGCAAUAUUACGAUGC | -3.69 ± 0.43 | -1.74 ± 0.29
31 | GGCCAGCAAUAUUACGAGGG | -3.58 ± 0.16 | -1.75 ± 0.17
32 | AGGAAGCAAUAUUACGCGGG | -1.85 ± 0.18 | -1.67 ± 0.14
33 | GACCAGCAAUAUUACGACCA | -0.124 ± 0.17 | -0.054 ± 0.15
34 | CGAAAGCAAUAUUACGCAGC | -3 ± 0.24 | -3.68 ± 0.33
35 | CAACAGCAAUAUUACGCCAU | -3.25 ± 0.11 | -2.94 ± 0.14
36 | GUGAAGCAAUAUUACGAAAG | -1.41 ± 0.15 | -0.599 ± 0.15
37 | AUCAAGCAAUAUUACGUGUG | -1.57 ± 0.069 | -1.32 ± 0.071
38 | GGAGAGCAAUAUUACGGGGA | -3.31 ± 0.49 | 
39 | GGAAAGCAAUAUUACGGUCU | -2.31 ± 0.12 | -1.17 ± 0.15
